Here are results for 11 molecules from patent publication US20190359704A1 (Chugai, published 2019).

Positions count from the first letter of the chain named.

The term Kd denotes a measure of binding affinity in units of concentration. A high value points to a looser complex.

The target of assay [1] is T1, membrane-type human IL-6R expressed on cells (human, UniProt P08887 20-468).
T1 construct: These are Ba/F3 cells (BaF/hIL-6R, WO2012/073992) or CHO cells expressing human IL-6 receptor; also called hIL-6R expressed on cell membrane; cell-membrane hIL-6R
T1 sequence: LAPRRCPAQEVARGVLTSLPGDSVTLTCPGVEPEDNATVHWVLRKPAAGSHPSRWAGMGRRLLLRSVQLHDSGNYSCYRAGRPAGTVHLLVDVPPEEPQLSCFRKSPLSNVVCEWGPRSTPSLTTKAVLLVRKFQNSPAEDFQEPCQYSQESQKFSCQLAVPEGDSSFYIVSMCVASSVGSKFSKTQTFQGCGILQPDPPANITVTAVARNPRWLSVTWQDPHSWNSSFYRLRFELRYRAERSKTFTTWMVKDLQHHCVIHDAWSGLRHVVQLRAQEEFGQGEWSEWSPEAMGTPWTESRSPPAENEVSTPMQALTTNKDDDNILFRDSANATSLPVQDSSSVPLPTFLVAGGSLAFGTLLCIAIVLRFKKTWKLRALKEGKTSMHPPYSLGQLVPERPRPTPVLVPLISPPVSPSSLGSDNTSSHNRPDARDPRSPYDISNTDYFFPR
In words: flow cytometry, BaF/hIL-6R cells, secondary antibody against the constant region, with or without 100 µM kynurenine. The procedure:
An appropriate number of BaF/hIL-6R cells were prepared and blocked with PBS containing 2% FBS on ice for one hour or more. […] In this step, the antibodies were contacted with cell-membrane hIL-6R on ice for 30 minutes. […] Then, in the presence or absence of kynurenine, the complex was contacted with a secondary antibody (Beckman Coulter IM1627) that recognizes the antibody constant region. After 30 minutes of incubation with the antibody on ice, the cells were again washed with Wash Buffer and then re-suspended in PBS/2% FBS.

The target in assay [2] is T2, human IL-6 receptor (soluble hIL-6R) (human, UniProt P08887 20-357, limits assumed, biotin-labeled in the ELISA experiments (sites not given)).
T2 construct: also called biotin-labeled hIL-6R
T2 sequence: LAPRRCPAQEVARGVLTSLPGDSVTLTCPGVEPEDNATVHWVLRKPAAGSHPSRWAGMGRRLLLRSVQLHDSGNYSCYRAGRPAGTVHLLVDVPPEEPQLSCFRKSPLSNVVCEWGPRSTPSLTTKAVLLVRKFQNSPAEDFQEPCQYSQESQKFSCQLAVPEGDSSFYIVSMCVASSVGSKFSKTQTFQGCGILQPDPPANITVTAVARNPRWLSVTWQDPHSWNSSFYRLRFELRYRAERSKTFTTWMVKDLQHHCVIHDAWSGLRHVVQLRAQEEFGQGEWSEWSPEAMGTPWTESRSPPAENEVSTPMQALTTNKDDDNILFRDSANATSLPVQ
The experiment in a line: SPR Biacore T200, IL-6R immobilised on CM5, antibody analyte in a concentration series, 1 mM ATP, 25 C; KD from plot of equilibrium value against antibody concentration; SPR, IL-6R on the chip, antibody concentration series, 1 mM ATP, 25 C. On the procedure: The running buffer was used: 20 mmol/1 ACES, 150 mmol/l NaCl, 0.05% (w/v) Tween20, pH 7.4. Assay was carried out at 25° C. […] For dilution of the antibodies, the running buffer or the running buffer containing any one of ATP, ADP, AMP, cAMP, and adenosine (ADO) were used. The final concentration of each small molecule and the final concentration of each antibody were adjusted to 1 mM and 1 μM, respectively. Meanwhile, under the 1 mM ATP condition, assay was carried out with a series of stepwise antibody concentrations. The dissociation constant KD (mol/L) of each clone for IL-6R was calculated from a plot of equilibrium value against antibody concentration. The parameters were calculated using the Biacore T200 Evaluation Software (GE Healthcare).
For orientation: Surface plasmon resonance follows binding to a sensor surface in real time, without labels.

In assay [3] the target is T2, human IL-6 receptor (soluble hIL-6R). The experiment in a line: ELISA, biotin-labeled hIL-6R on streptavidin plate, absorbance 450 nm; seven conditions of Table 18. In general terms: An ELISA detects its analyte on a solid surface through an enzyme-linked reagent.
Assay [4] deals with T3, human serum albumin (human, UniProt P02768 25-609, biotin-labeled (sites not given)).
T3 construct: also called HSA; biotin-labeled HSA
The experiment in a line: ELISA, biotin-labeled HSA on streptavidin plate, absorbance 450 nm; nine small-molecule conditions of Table 3.

The target in assay [5] is T4, human IL-6 (human, biotin-labeled in the ELISA experiments (sites not given)).
T4 construct: ELISA used biotin-labeled human IL-6; SPR used human IL-6 from Kamakura Techno-Science, Inc; also called biotin-labeled human IL-6
The experiment in a line: SPR (Biacore T200), A11 immobilised on CM5, 1 µmol/L IL-6 as analyte for 60 s, 25 °C, kynurenine concentration varied (axis in µmol/L). The procedure:
The running buffer used was 10 mmol/1 ACES, 150 mmol/l NaCl, 0.05% (w/v) Tween20, pH 7.4. […] All was immobilized onto sensor chip CM5 by amine coupling, and as an analyte IL-6 was diluted to 1 μmol/l with 10 mmol/1 ACES, 150 mmol/l NaCl, 0.05% (w/v) Tween20, pH 7.4 containing kynurenine at various concentrations, and allowed to interact for 60 seconds to observe changes in the amount of binding.

Assay [6] has as its target T4, human IL-6. The experiment in a line: SPR Biacore T200, A11 captured on protein A/G CM5 chip, human IL-6 analyte, 37 C, running buffer with 100 µmol/l kynurenine; SPR kinetics, A11 captured on the chip, IL-6 analyte, 100 µmol/l kynurenine. The procedure: Sensor chip CM5 (GE Healthcare) was immobilized with an appropriate amount of protein A/G (Invitrogen) by amine coupling. Antibodies of interest were captured by the chip to allow interaction to IL-6 as an antigen. The two types of running buffers used were 10 mmol/1 ACES, 150 mmol/l NaCl, 0.05% (w/v) Tween20, 100 μmol/l kynurenine, pH 7.4, and 10 mmol/1 ACES, 150 mmol/l NaCl, 0.05% (w/v) Tween20, pH 7.4. The interaction with IL-6 as an antigen was assessed at 37° C. The buffer used to dilute IL-6 was the same running buffer as described above.
Then, the running buffer was injected at a flow rate of 5 μl/min for three minutes. After observation of human IL-6 dissociation from the antibody, 10 mmol/l glycine-HCl (pH 1.5) was injected at a flow rate of 30 μl/min for 30 seconds to regenerate the sensor chip. […] Each parameter was calculated using the Biacore T200 Evaluation Software (GE Healthcare).

Assay [7] has as its target T2, human IL-6 receptor (soluble hIL-6R). In words: SPR Biacore T200, antibody captured on protein A CM5 chip, IL-6R analyte, 25 C, with 100 µmol/l kynurenine; SPR, antibody captured on the chip, IL-6R as analyte, 100 µmol/l kynurenine. The procedure:
Each parameter was calculated using the Biacore T200 Evaluation Software (GE Healthcare).

B1: MRA (antibody, human IgG1, kappa, V domains shown)
VH: QVQLQESGPGLVRPSQTLSLTCTVSGYSITSDHAWSWVRQPPGRGLEWIGYISYSGITTYNPSLKSRVTMLRDTSKNQFSLRLSSVTAADTAVYYCARSLARTTAMDYWGQGSLVTVSS
VL: DIQMTQSPSSLSASVGDRVTITCRASQDISSYLNWYQQKPGKAPKLLIYYTSRLHSGVPSRFSGSGSGTDFTFTISSLQPEDIATYYCQQGNTLPYTFGQGTKVEIKR
notes: also called known anti-human IL-6R antibody MRA; control antibody MRA
Consider B1, for which the binding result in assay [1] is “binds”.

B2: 6RAD2C1-4_001 (antibody, human IgG1, kappa, V domains shown)
VH: EVQLVESGGDLVKPGGGLRLSCAASGFTFSGHTMNWVRQAPGKGLEWVSSISSRSNYIYYADSVKGRFTISRDNAKNSLYLQMNSLRAEDTAVYYCARYGRLHDRNWVFDYWGQGTLVTVSS
VL: QSALTQPPSASGSPGQTVTISCTGTSTDVGDYNYVSWYQQHPGKAPKLMIYQVSKKPSGVPDRFSGSKSGNTASLTVSGLQAEDEADYFCSSRSYGAGVVFGGGTKLTVLR
notes: also called 6RAD2C1-4_01
For B2, the Kd in assay [2] turned out to be 300 nM.

B3: 6RAD2C1-4_030 (antibody, human IgG1, kappa, V domains shown)
VH: B2 VH with G31S, H32Y, N56G, I58A, Y99F, R101A, H103N, D104T, R105L
VL: B2 VL with S92T, S94T, Y95A, G96N, V100L
notes: also called 6RAD2C1-4_30
Molecule B3 came in with a Kd in assay [2] of 330 nM.

B4: 6RDL3C1-4_085 (antibody, human IgG1, kappa, V domains shown)
VH: B2 VH
VL: B2 VL
notes: also called 6RDL3C1-4_85
With B4, the affinity in assay [2], expressed as Kd, was 390 nM.

B5: 6RAD2C1-4_076 (antibody, human IgG1, kappa, V domains shown)
VH: B2 VH with H32Y, N56S, Y59D, R101A, H103G, D104Q
VL: QSALTQPPSASGSPGQTVTISCTGTSTDVGDYNYVSWYQQHPGKAPKLMIYQTSKRPSGVPDRFSGSKSGNTASLTVSGLQAEDEADYFCSSRSIKHPVFGGGTKLTVLR
notes: also called 6RAD2C1-4_76
In assay [2], B5 showed a Kd of 250 nM.

B6: 6RAD2C1-4_011 (antibody, human IgG1, kappa, V domains shown)
VH: B2 VH with N56S, R101A, H103G, D104Q, R105M
VL: B2 VL with Q52S, K56R, Y95S, G96S, A97M, G98N, V100L
notes: also called 6RAD2C1-4_11
Turning to B6, binding in assay [2] was characterised by a dissociation constant (Kd) of 230 nM.

B7: 6RAD2C1-4_005 (antibody, human IgG1, kappa, V domains shown)
VH: B2 VH with G31T, N56S, Y59H, Y99F, R101K, H103G, D104E
VL: B2 VL with S92V, Y95D, A97H, V99P, V100M
notes: also called 6RAD2C1-4_05
B7: in assay [2], binding was characterised by a dissociation constant (Kd) of 340 nM.

B8: 6RAD2C1-4_026 (antibody, human IgG1, kappa, V domains shown)
VH: B2 VH with H32Y, I58A, Y59H, H103G
VL: B2 VL with D31A, Q52K, S92L, S94A, Y95A, G96T, A97T, V100L
notes: also called 6RAD2C1-4_26
The molecule B8 yielded a dissociation constant Kd in assay [2] of 210 nM.

B9: GC413 (antibody, human IgG1, kappa, L234A L235A, N297A, V domains shown)
VH: QVQLVQSGAEVKKPGASVKVSCKASGYTFTDYEMHWIRQPPGQGLEWIGAIDPKTGDTAYSQKFKGRVTLTADKSTSTAYMELSSLTSEDTAVYYCTRFYSYTYWGQGTLVTVSS
VL: DIVMTQSPLSLPVTPGEPASISCRSSQSLVHSNRNTYLHWYQQKPGQAPRLLIYKVSNRFSGVPDRFSGSGSGTDFTLKISRVEAEDVGVYYCSQNTHVPPTFGQGTKLEIKR
notes: also called anti-human glypican 3 antibody GC413; anti-human glypican-3 antibody GC413
On to B9, for which the binding result in assay [3] and in assay [4] was “no binding (tested: 2.5 µg/ml)” each time.

B10: I6NMSC1-3_A11 (antibody, human IgG1, lambda, V domains shown)
VH: QVQLQESGGGVVQPGRSLRLSCAASGFTFSSYAMHWVRQAPGKGLEWVAVISYDGSNKYYADSVKGRFTISRDNSKNTLYLQMNSLRAEDTAVYYCARDAVTGDDWYFDLWGRGTLVTVSS
VL: SYELTQPPSVSVAPGKTARITCGGNNIGSKSVHWYQQKPGQAPVLVVYDDSDRPSGIPERFSGSNSGNTATLTISRVEAGDEADYYCQVWDSSSDHPVFGGGTKLTVLG
As for B10, the “KD printed beside the curve of IL-6 binding against the kynurenine concentration (per paragraph 715 the KD of kynurenine for forming the A11/IL-6/kynurenine complex, not the antibody-antigen KD)” value in assay [5] was found to be 32 nM. The Kd in assay [6] amounted to 1000 nM.

B11: 6RNMSC1-2_F02 (antibody, human IgG1, kappa)
heavy: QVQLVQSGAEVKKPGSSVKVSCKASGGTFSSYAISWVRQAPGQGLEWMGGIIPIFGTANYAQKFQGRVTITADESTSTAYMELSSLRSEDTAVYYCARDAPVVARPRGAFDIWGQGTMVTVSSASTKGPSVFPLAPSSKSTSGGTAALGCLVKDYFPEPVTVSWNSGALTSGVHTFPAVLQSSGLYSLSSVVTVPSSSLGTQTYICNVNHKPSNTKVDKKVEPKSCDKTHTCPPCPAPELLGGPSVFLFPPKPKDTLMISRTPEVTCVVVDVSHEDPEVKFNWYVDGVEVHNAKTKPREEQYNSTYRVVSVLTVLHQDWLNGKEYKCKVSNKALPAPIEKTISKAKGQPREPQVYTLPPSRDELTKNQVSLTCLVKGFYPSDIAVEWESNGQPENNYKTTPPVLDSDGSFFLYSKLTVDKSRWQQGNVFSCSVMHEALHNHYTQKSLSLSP
light: DIVMTQTPLSSPVTLGQPASISCRSSQSLVHSDGNTYLSWLQQRPGQPPRLLIHEISNRFSGVPDRFSGSGAGTNFTLKISRVEAEDVGVYYCMQATQFPRTFGQGTKVEIKRTVAAPSVFIFPPSDEQLKSGTASVVCLLNNFYPREAKVQWKVDNALQSGNSQESVTEQDSKDSTYSLSSTLTLSKADYEKHKVYACEVTHQGLSSPVTKSFNRGEC
notes: also called clone 6RNMSC1-2_F02
B11 displayed a Kd in assay [7] of 1500 nM.
